The values below come from paper PMC11904782, “Armadillo domain of ARID1A directly interacts with DNA-PKcs to couple chromatin remodeling with nonhomologous end joining (NHEJ) pathway” (Nucleic Acids Research, 2025).

The chains are these.
B1: GST-EZH2-C: aa 598–746 (domain or fragment)
chain: not shown
notes: enhancer of zeste 2 PRC2 subunit 2 (EZH2) residues 598-746
B2: His–ARID1A–ARM domain (1914–2285 aa) (domain or fragment, UniProt O14497 1914-2285, looked up)
chain: MLSTRSSTLTEDGAKSSEAIKESSKFPFGISPAQSHRNIKILEDEPHSKDETPLCTLLDWQDSLAKRCVCVSNTIRSLSFVPGNDFEMSKHPGLLLILGKLILLHHKHPERKQAPLTYEKEEEQDQGVSCNKVEWWWDCLEMLRENTLVTLANISGQLDLSPYPESICLPVLDGLLHWAVCPSAEAQDPFSTLGPNAVLSPQRLVLETLSKLSIQDNNVDLILATPPFSRLEKLYSTMVRFLSDRKNPVCREMAVVLLANLAQGDSLAARAIAVQKGSIGNLLGFLEDSLAATQFQQSQASLLHMQNPPFEPTSVDMMRRAARALLALAKVDENHSEFTLYESRLLDISVSPLMNSLVSQVICDVLFLIGQS
notes: ARID1A residues 1914-2285 (ARM domain); Limits are printed for the BLI ligand; also called His-tagged ARM domain of ARID1A
B3: wild-type GST–DNA–PKcs (3552–3691 aa) (domain or fragment, UniProt P78527 3552-3691, looked up)
chain: KEFVARIKSKLDQGGVIQDFINALDQLSNPELLFKDWSNDVRAELAKTPVNKKNIEKMYERMYAALGDPKAPGLGAFRRKFIQTFGKEFDKHFGKGGSKLLRMKLSDFNDITNMLLLKMNKDSKPPGNLKECSPWMSDFK
notes: DNA-PKcs residues 3552-3691; also called recombinant wild-type DNA-PKcs; longer amino acid region (3552–3691 aa)
B4: GST-POLB (7–53 aa) (domain or fragment)
chain: not shown
notes: DNA polymerase beta residues 7-53; Printed as GAT-POLB in the methods; also called GAT-POLB (7–53 aa); recombinant POLB
B5: GST–DNA–PKcs ARID1A-binding region (3615–3660 aa), wild type (domain or fragment, UniProt P78527 3615-3660, looked up)
chain: AALGDPKAPGLGAFRRKFIQTFGKEFDKHFGKGGSKLLRMKLSDFN
notes: DNA-PKcs residues 3615-3660, printed as 45 amino acids

Conditions in all cases: both partners purified
Assay [1] concerns the target B2. Description: far-Western, overlay or dot blot; GST-fusion proteins separated by SDS–PAGE, transferred to PVDF, renatured through falling guanidine–HCl, incubated with His–ARID1A–ARM overnight at 4°C, probed with anti-His-tag antibody.
Assay [2] concerns the target T1, GST-DNTT: aa 1–509 (UniProt P04053 1-509).
T1 construct: DNA nucleotidylexotransferase (DNTT) residues 1-509; also called DNA nucleotidylexotransferase
The assay is described as above.

Assay [3] concerns the target B2. Description: BLI; Octet Red K2; His–ARID1A–ARM domain immobilised on NTA biosensors; GST recombinant proteins as analytes in serial dilutions.

T1 sequence (P04053 whole entry, the tested form may be a part): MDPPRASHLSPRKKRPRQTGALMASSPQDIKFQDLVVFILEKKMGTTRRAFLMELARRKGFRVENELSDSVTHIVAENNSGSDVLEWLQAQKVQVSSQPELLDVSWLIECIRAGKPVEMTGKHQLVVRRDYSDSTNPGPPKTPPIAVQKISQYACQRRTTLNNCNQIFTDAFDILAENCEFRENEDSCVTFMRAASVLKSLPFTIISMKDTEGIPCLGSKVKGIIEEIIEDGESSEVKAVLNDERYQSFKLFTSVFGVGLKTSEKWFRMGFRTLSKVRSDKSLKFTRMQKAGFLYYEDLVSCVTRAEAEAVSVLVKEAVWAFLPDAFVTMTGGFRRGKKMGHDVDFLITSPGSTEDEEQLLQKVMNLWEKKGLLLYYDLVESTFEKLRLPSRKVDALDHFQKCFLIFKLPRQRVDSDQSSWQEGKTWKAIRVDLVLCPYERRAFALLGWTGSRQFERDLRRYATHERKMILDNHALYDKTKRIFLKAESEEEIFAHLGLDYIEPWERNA

For the molecule B1, in assay [1], the binding result is recorded as “binds”.
B2: the binding result in assay [2] is reported as “binds”.
For B3, in assay [3], the binding result is “binds”.
For B4, the binding result in assay [3] is listed as “binds”.
In the case of B5, in assay [1], the binding result is on record as “binds”.
